Earlier results on one molecule are cited in patent publication US20240382567A1, “Long-acting PTH compound treatments” (Ascendis Pharma Bone Diseases A/S, priority 2021, published 2024).

Where two headings read alike, the source gives them in different places.

This data set deals with patients with hypoparathyroidism.

B1: PTH(1-84): daily injection of PTH(1-84), approved as adjunct to calcium and vitamin D to control hypocalcemia in hypoparathyroidism (protein, UniProt P01270 32-115, looked up)
Parathyroid hormone: SVSEIQLMHNLGKHLNSMERVEWLRKKLQDVHNFVALGAPLAPRDAGSQRPRKKEDNVLVESHEKSLGEADKADVNVLTKAKSQ
modifications: Parathyroid hormone
notes: daily injection of PTH(1-84), approved as adjunct to calcium and vitamin D to control hypocalcemia in hypoparathyroidism
For the molecule B1, where the note is “3 years, P=0.04”, the “Total hip BMD increase from baseline” value is listed as 2.10%. For the same molecule, the “Lumbar spine BMD increase” value (at 24 months, P=0.01) was 3.2%. For the same molecule, for the setting “study conclusion (year 6), P=0.0001 vs baseline”, the “Distal one third radius BMD mean loss” value is 4.4%. Also, the “Femoral neck BMD increase” value (year 3, P=0.04) is 2.6%. For the same molecule, for the setting “year 6”, the “Distal one third radius T-score” value is given as −0.28 and the “Femoral neck BMD versus baseline” value was “not different from baseline”. In addition, the “Lumbar spine BMD mean gain from baseline” value (year 6, P=0.004) is on record as 3.8%. Further, the “Total hip BMD increase from baseline” value (year 6, P=0.02) is reported as 2.4%.
